Results: patent US20240052042A1 (Novartis, published 2024)

T1: human NPR2 on CHO cells (human, UniProt P20594 23-1047)
T1 sequence (looked up): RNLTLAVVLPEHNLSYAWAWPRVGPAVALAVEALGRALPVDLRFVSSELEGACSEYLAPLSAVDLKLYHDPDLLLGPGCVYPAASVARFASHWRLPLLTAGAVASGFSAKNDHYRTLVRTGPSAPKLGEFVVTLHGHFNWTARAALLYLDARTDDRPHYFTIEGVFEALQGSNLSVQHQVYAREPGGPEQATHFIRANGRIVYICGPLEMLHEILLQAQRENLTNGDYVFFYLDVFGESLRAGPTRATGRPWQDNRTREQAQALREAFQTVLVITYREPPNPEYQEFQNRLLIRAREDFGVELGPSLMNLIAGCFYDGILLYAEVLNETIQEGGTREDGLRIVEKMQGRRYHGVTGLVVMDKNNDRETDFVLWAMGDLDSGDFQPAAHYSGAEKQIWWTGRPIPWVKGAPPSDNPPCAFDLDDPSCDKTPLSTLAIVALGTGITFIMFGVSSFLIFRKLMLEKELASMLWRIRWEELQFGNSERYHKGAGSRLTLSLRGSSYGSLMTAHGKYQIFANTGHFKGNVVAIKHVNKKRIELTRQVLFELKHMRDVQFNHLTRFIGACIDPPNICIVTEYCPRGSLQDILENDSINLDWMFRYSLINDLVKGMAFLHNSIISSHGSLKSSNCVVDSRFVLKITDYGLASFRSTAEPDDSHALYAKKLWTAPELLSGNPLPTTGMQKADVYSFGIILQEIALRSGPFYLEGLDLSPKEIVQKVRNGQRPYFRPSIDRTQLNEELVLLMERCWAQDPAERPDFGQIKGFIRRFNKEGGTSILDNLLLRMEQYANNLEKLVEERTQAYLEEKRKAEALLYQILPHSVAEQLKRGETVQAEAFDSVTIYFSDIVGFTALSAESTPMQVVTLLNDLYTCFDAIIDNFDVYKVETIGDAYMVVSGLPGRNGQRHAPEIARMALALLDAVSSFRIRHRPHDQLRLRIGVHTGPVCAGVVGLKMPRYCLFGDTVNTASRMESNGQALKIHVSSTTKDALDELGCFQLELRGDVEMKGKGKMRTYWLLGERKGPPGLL

T2: human NPR1 on CHO-K1 cells (human, UniProt P16066 33-1061)
T2 sequence: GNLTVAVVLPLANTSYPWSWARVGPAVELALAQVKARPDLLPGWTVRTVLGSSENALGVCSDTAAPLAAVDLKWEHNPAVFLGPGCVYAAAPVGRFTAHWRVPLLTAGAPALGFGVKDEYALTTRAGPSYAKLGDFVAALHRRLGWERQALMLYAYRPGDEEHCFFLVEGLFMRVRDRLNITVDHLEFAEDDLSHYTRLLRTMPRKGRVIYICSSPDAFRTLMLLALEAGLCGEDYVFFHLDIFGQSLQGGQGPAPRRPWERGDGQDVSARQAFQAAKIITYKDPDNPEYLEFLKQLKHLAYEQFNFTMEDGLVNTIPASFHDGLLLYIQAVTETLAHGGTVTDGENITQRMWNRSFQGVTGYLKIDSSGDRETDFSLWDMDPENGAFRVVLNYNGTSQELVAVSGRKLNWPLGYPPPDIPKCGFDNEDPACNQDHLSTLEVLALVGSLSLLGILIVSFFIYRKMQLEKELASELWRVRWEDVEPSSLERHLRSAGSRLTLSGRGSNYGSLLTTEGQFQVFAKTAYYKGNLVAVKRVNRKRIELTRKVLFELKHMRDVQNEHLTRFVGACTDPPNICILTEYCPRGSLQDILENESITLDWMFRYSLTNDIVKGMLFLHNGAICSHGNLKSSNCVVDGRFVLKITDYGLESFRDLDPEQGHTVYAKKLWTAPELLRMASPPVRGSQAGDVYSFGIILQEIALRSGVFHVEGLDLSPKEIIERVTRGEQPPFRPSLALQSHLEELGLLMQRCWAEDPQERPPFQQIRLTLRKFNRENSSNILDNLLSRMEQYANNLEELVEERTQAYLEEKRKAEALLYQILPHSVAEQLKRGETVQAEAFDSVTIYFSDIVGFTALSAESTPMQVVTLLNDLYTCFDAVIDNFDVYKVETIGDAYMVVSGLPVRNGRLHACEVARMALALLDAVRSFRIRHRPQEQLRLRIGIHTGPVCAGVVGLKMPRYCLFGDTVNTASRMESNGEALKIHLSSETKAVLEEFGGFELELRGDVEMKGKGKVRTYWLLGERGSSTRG

T3: rNPR1-ANP complex (rat, UniProt P01160 124-151 (human entry), limits assumed)
T3 construct: rNPR1 antigen in the presence of ANP; also called rNPR1 + 100 nM ANP
T3 sequence: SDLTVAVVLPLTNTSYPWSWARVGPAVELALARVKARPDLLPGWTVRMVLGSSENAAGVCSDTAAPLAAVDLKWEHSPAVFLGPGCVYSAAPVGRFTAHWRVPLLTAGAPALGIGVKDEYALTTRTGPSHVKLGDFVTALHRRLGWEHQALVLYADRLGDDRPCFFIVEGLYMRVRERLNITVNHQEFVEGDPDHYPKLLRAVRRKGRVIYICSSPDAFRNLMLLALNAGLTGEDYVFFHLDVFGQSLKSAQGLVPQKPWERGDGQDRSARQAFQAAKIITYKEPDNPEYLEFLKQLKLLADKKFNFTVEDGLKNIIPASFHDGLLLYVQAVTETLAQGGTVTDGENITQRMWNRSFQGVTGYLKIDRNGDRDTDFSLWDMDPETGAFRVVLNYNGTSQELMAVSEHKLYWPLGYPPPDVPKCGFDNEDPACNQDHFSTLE
T3 sequence (peptide): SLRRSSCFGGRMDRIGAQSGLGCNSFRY

T4: rat NPR1 (rNPR1) (rat, UniProt P18910 29-469, limits assumed)
T4 construct: Soluble antigen
T4 sequence: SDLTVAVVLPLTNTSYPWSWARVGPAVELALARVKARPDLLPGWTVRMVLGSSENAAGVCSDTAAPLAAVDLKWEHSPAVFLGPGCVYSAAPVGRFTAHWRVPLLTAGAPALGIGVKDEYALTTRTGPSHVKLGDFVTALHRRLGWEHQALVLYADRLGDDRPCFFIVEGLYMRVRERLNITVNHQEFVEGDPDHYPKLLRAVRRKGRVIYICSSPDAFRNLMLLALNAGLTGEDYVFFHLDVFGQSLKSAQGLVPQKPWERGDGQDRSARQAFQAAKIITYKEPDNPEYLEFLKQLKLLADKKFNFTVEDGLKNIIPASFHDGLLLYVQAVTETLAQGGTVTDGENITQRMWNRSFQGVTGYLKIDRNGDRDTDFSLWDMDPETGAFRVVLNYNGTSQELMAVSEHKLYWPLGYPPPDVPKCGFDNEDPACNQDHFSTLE

T5: hNPR1-ANP complex (human, UniProt P01160 124-151, limits assumed)
T5 construct: hNPR1 antigen in the presence of ANP; also called hNPR1 + 100 nM ANP
T5 sequence: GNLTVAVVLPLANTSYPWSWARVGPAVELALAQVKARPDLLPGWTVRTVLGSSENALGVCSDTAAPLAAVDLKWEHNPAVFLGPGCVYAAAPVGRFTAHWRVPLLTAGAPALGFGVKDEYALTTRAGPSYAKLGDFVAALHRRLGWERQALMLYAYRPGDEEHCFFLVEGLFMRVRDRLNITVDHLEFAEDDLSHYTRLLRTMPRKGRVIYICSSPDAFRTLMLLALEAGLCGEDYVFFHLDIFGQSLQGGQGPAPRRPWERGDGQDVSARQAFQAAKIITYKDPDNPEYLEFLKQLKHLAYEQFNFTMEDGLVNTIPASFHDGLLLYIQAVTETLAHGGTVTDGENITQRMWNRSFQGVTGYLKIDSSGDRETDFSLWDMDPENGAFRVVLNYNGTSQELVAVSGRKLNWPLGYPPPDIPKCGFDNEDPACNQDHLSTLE
T5 sequence (peptide): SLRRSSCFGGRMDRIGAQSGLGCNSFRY

T6: human Natriuretic Peptide Receptor 1 (hNPR1) (human, UniProt P16066 33-473, limits assumed)
T6 construct: pannings used NPR1-hFc; also called NPR1-hFc
T6 sequence: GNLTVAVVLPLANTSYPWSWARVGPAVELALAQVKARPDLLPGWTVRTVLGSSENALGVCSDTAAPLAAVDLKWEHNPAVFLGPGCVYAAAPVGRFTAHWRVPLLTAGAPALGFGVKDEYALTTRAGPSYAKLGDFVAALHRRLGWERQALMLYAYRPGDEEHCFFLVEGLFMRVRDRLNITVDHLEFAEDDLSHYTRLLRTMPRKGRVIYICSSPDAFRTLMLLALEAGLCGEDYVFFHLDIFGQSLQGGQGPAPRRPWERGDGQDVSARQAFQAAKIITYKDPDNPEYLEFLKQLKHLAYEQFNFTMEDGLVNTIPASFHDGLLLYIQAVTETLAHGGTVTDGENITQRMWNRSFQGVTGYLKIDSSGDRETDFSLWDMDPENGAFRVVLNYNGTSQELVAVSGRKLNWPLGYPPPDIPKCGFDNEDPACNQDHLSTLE


Columns and labels:
human NPR2 on CHO cells = molecular target: T1, human NPR2 on CHO cells; assay: cell-based or functional assay
[1] = molecular target: T2, human NPR1 on CHO-K1 cells; assay: cell-based or functional assay
rNPR1-ANP complex = molecular target: T3, rNPR1-ANP complex; assay: SET, FabCys
rat NPR1 (rNPR1) = molecular target: T4, rat NPR1 (rNPR1); assay: SET, FabCys
hNPR1-ANP complex = molecular target: T5, hNPR1-ANP complex; assay: SET, FabCys
[2] = molecular target: T6, human Natriuretic Peptide Receptor 1 …; assay: SET, FabCys

cGMP generation EC50 (human NPR2 on CHO cells) [µM]	cGMP generation Y max (% of ANP) (human NPR2 on CHO cells)	Binder	other results
> 0.5	< 1 % of ANP	XX16 (anti-NPR1 IgG) (antibody, V domains shown) VH: EVQLLESGGGLVQPGGSLRLSCAASGFTFSSYWMNWVRQAPGKGLEWVSVIESKGNYIFYADSVKGRFTISRDNSKNTLYLQMNSLRAEDTAVYYCARDRYSMIYSYGAGAFDYWGQGTLVTVSS VL: DIQMTQSPSSLSASVGDRVTITCRASQGISSYLAWYQQKPGKAPKLLIYTASTLQSGVPSRFSGSGSGTDFTLTISSLQPEDFATYYCQQTWRKPRTFGQGTKVEIK	–
> 0.5	< 1 % of ANP	XX18 (IgG) (antibody, V domains shown) VH: EVQLLESGGGLVQPGGSLRLSCAASGFTFSSYWMNWVRQAPGKGLEWVSVIESKGNYIFYADSVKGRFTISRDNSKNTLYLQMNSLRAEDTAVYYCARDRYSMIYSYGAGAFDYWGQGTLVTVSS VL: DIQMTQSPSSLSASVGDRVTITCRASQGISSYLAWYQQKPGKAPKLLIYTASTLQSGVPSRFSGSGSGTDFTLTISSLQPEDFATYYCQQEWAKPRTFGQGTKVEIK	–
> 0.5	< 1 % of ANP	XX15 (IgG) (antibody, V domains shown) VH: EVQLLESGGGLVQPGGSLRLSCAASGFTFSSYWMNWVRQAPGKGLEWVSVIESKGNYIFYADSVKGRFTISRDNSKNTLYLQMNSLRAEDTAVYYCARDRYSMIYSYGAGAFDYWGQGTLVTVSS VL: DIQMTQSPSSLSASVGDRVTITCRASQGISSYLAWYQQKPGKAPKLLIYTASTLQSGVPSRFSGSGSGTDFTLTISSLQPEDFATYYCQQEWVKPRTFGQGTKVEIK	–
–	–	WW06 (FabCys format) (Fab, V domains shown) VH: QVQLVQSGAEVKKPGESLKISCKGSGYSFTSYWIAWVRQMPGKGLEWMGRIDPDNSYTRYSPSFQGQVTISADKSISTAYLQWSSLKASDTAMYYCARWLSPGYALGEQPAGMDHWGQGTLVTVSS VL: DIVLTQPPSVSGAPGQRVTISCTGSSSNIGAGYAVHWYQQLPGTAPKLLIYSNNKRPSGVPDRFSGSKSGTSASLAITGLQAEDEADYYCQSYDLQKSSRVFGGGTKLTVL	cGMP conc [nM] at 2 µM FabCys, +0.075 nM ANP [1]: 251 nM; cGMP conc [nM] at 2 µM FabCys, without ANP [1]: 281 nM
–	–	ZZ17 (FabCys format) (Fab, V domains shown, Monovalent FabCys) VH: EVQLLESGGGLVQPGGSLRLSCAASGFTFSDYAISWVRQAPGKGLEWVSSISGGGYHTQYAGSVKGRFTISRDNSKNTLYLQMNSLRAEDTAVYYCARPYLGDRRSYGFDHWGQGTLVTVSS VL: QSALTQPASVSGSPGQSITISCTGTSSDVGSYNLVSWYQQHPGKAPKLMIYEGSKRPSGVSNRFSGSKSGNTASLTISGLQAEDEADYYCSSYGFHIVVVVFGGGTKLTVL	Kd (rNPR1-ANP complex): 0.036 µM; Kd (rat NPR1 (rNPR1)): 0.052 µM
–	–	ZZ05 (FabCys format) (Fab, V domains shown, Monovalent FabCys) VH: EVQLVQSGAEVKKPGESLKISCKGSGYSFTSYWISWVRQMPGKGLEWMGIIYPGTSYTRYSPSFQGQVTISADKSISTAYLQWSSLKASDTAMYYCARGSLPGLLGFDHWGQGTLVTVSS VL: QSVLTQPPSVSGAPGQRVTISCTGSSSNIGAGYDVHWYQQLPGTAPKLLIYGNSNRPNGVPDRFSGSKSGTSASLAITGLQAEDEADYYCQSYGAFPRFVVFGGGTKLTVL	Kd (hNPR1-ANP complex): 0.0012 µM; Kd [2]: 0.00074 µM
